Data from patent US20090005257A1 (published 2009).

Assays:
TNF-α [1] = molecular target: T1, TNF-α (UniProt P01375 77-233); experiment: phage ELISA on TNF-α coated wells, heated 80 C 10 min against unheated
T1 construct: also called tumour necrosis factor

TNF-α [2] = molecular target: T1, TNF-α; experiment: RBA-ELISA: dAb competes with binding of soluble TNF-α to immobilised TNF-α receptor
human serum albumin [3] = molecular target: T2, human serum albumin (human, UniProt P02768 25-609); experiment: phage ELISA on HSA, heated against unheated
T2 construct: also called HSA
T2 sequence (P02768 25-609 limits assumed): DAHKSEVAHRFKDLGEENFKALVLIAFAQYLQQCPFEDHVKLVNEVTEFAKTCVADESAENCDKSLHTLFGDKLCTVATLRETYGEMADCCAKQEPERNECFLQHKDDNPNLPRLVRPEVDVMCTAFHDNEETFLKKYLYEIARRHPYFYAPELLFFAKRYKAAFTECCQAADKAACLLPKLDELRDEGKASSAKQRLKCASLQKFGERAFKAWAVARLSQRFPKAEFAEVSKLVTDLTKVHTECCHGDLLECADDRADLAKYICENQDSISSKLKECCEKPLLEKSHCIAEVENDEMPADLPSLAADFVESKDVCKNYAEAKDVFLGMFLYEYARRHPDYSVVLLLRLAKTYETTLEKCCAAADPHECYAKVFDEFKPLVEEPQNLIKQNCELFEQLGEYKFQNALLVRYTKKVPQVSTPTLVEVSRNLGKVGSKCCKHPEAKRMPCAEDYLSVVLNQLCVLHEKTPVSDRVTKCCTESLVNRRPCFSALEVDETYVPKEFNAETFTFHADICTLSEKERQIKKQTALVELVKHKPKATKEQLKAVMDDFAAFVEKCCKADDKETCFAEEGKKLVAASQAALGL
Protocol: The ELISA wells were coated overnight at 4° C. with one of the following ligands: 10 μg/ml of protein A in PBS, 10 μg/ml of mAb 9E10 in PBS, or 3 mg/ml of HEL in 0.1 M NaHCO₃ buffer, pH 9.6. After blocking the wells with PBS containing 2% Tween-20 (PBST), a dilution series of phage in PBST was incubated for 2 h. After washing with PBS, bound phage were detected as follows. In assays for binding to REL, phage was detected directly using a conjugate of horseradish peroxidase with an anti-M13 monoclonal antibody (Amersham) using 3,3′,5,5′-tetramethylbenzidine as substrate. In assays for binding to protein A, the phage (4×10¹⁰ TU/ml in PBS) was first biotinylated at 4° C. with biotin-NHS (Perbio) (50 μM final concentration) and detected by sequential addition of streptavidin-horseradish peroxidase conjugate (1 μg/ml) (Sigma-Aldrich) in PBST, and substrate as above. In assays for binding to human serum albumin (USA) (Sigma, coating at 10 μg/ml in PBS), the ELISA was performed in PBS supplemented with 2% skim-milk powder (PBSM) and bound phage were detected in two steps using a rabbit anti-fd bacteriophage monoclonal antibody (Sigma, 1/1000 dilution) and goat anti-rabbit IgG serum conjugated with horseradish peroxidase (Sigma, 1/1000 dilution) and substrate as above.

human serum albumin [4] = molecular target: T2, human serum albumin; experiment: phage ELISA on HSA, heated 80 C 10 min against unheated
Protocol: (§1) A phage ELISA was performed according to the protocol of Section 5 with the following modifications. 1×10¹⁰ phage were either heat-treated (10 minutes at 80° C. in 100 μL aliquots) or left untreated. The samples were centrifuged for 10 minutes at 14,000 rpm at 4° C. and the supernatants were added to ELISA wells coated with HSA (with a dilution series of ⅓). After developing the ELISA, the OD450 nm values (y-axis) for each heat treated/unheated phage pair were plotted against the phage number α-axis) and the %-refoldability was calculated.

human serum albumin [5] = molecular target: T2, human serum albumin; experiment: phage ELISA on HSA, purified phage, 1/3 dilution series
Protocol: as §1

protein A [6] = molecular target: T3, protein A (UniProt P38507 37-477); experiment: phage ELISA on protein A, heated 80 C against unheated, titration (Section 5)
T3 construct: also called pA
Protocol: (§2) After biotinylation of the phage, for each clone, a 100 μl sample of phage was transferred to a thin-wall PCR tube (and the remaining biotinylated phage was kept on ice). The tube was placed in a PCR apparatus for incubation at 80° C. during 10 min (temperature of cover lid: 85° C.). After heating, the tube was rapidly cooled down to 4° C. in the PCR apparatus.
(§3) ELISA plates were coated and blocked as described in Section 4. The samples were transferred to the empty wells of coated/blocked ELISA plates, and incubated for 2 hours at room temperature. Unbound phage was then removed by washing the wells 6-ties with PBS. For detection, Str-HRP (from a 1 mg/ml stock in PBS) were diluted 1/2000 in PBS supplemented with 2% v/v TWEEN 20 (Polyoxyethylensorbitan monolaurate; for protein A-based ELISA) or 2% w/v BSA (for protein L-based ELISA), and 100 μl of the resulting solution was added to each ELISA well. After incubation for 1 hour at room temperature, the unbound conjugate was removed by washing the wells 6-times with PBS. For colorimetric reaction, a 10 mg/ml solution of TMB (tetramethylbenzidine) was diluted 100-fold in a buffer of 0.1 M sodium acetate, pH 6.0. Next, hydrogen peroxyde was added (0.4 ul per ml of buffer/TMB, and 100 ul of this solution was added to each ELISA well. After color (blue) developed, the reaction was stopped by adding 50 μl of 1 M sulfuric acid per well (color turns to yellow). The optical density was recorded at 450 nm.

protein A [7] = molecular target: T3, protein A; experiment: phage ELISA on protein A, heated 80 C against unheated, three data points
Protocol: as §2, §3
These clones were characterized for refoldability on phage (according to the protocol of Section 5, but with three data points being taken) and in solution.

[8] = molecular target: T4, human Tumor Necrosis Factor Receptor 1 (TNFR1) expressed on HeLa cells (human, UniProt P19438 30-455); experiment: cell-based or functional assay
T4 sequence (looked up): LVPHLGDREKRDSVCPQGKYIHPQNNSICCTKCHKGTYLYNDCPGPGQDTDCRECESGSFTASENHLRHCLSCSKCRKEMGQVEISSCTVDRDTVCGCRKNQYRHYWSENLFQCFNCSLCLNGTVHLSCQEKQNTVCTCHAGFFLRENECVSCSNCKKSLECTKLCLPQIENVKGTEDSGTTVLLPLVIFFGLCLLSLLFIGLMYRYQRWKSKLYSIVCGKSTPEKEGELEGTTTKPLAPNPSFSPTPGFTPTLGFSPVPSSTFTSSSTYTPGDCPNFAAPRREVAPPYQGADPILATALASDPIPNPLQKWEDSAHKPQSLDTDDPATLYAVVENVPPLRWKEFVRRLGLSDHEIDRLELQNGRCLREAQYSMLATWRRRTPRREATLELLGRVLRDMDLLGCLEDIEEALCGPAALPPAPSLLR

[9] = molecular target: T5, TNF receptor 1 Fc fusion protein (human, UniProt P19438 30-211); experiment: receptor binding ELISA: dAb mixed with TNF (10 ng/ml) and added to TNFR1-Fc captured by anti-human Fc; bound TNF detected with biotinylated anti-TNF antibody; blocked ligand TNF
T5 construct: Bought; also called recombinant TNF receptor 1 (p55); human Tumor Necrosis Factor Receptor 1; not shown: Fc part of the bought fusion protein (captured by an anti-human Fc antibody)
T5 sequence (looked up): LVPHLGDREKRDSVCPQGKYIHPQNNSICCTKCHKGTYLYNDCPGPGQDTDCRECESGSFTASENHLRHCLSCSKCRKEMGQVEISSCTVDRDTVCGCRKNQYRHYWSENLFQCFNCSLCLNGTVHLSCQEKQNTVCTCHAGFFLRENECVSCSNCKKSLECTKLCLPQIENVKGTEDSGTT

T1 sequence (P01375 77-233 limits assumed): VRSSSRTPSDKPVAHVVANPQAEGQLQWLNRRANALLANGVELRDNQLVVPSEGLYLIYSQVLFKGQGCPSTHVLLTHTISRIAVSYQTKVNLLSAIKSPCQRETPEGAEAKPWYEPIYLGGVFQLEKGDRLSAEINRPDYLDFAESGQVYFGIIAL

B1: TAR1-5-19 (other)
VL: DIQMTQSPSSLSASVGDRVTITCRASQSIDSYLHWYQQKPGKAPKLLIYSASELQSGVPSRFSGSGSGTDFTLTISSLQPEDFATYYCQQVVWRPFTFGQGTKVEIKR
notes: Vκ1 single domain (dAb) specific for TNF-α; also called PEP1-5-19
% refolding (TNF-α binding retained after heating) (TNF-α [1]): 80%
IC50 (TNF-α [2]): 30 nM

B2: anti-HSA VH clone #1 (other)
VH: EVQLLESGGGLVQPGGSLRLSCAASGFTFDLYDMSWVRQAPGKGLEWVSSIVNSGVRTYYADSVKGRFTISRDNSKNTLYLQMNSLRAEDTAVYYCAKLNQSYHWDFDYWGQGTLVTVSS
notes: From library 4G (human VH3, DP47 germline gene + JH4 segment)
% HSA binding signal retained after heating (human serum albumin [3]): < 10%
Refoldability (HSA binding retained after heating) (human serum albumin [4]): 1.5%
phage number, +Heat (human serum albumin [5]): 1e+10 phage
phage number, -Heat (human serum albumin [5]): 1.5e+08 phage

B3: anti-HSA VH clone #3 (other)
VH: EVQLLESGGGLVQPGGSLRLSCAASGFTFSKYWMSWVRQAPGKGLEWVSSIDFMGPHTYYADSVKGRFTISRDNSKNTLYLQMNSLRAEDTAVYYCAKGRTSMLPMKGKFDYWGQGTLVTVSS
notes: As clone #1
% HSA binding signal retained after heating (human serum albumin [3]): < 10%
Refoldability (HSA binding retained after heating) (human serum albumin [4]): 0.55%
phage number, +Heat (human serum albumin [5]): 1e+10 phage
phage number, -Heat (human serum albumin [5]): 5.5e+07 phage

B4: pA-C59 (other)
VH: EVQLLESGGGLVQPGGSLRLSCAASGDSISDDYMAWVRQAPGKGLEWVSSIDDKNGSTYYADSVKGRFTISRDNSKNTLYLQMNSLRAEDTAVYYCAGGDGQAHKVDYWGQGTLVTVSS
notes: Frameworks of DP47d, ranges as for HEL4
% refolding (protein A binding retained after heating) (protein A [6]): 25%

B5: pA-C13 (other)
VH: EVQLLESGGGLVQPGGSLRLSCAASGDMVNDKDMSWVRQAPGKGLEWVSSISTENGSTYYADSVKGRFTISRDNSKNTLYLQMNSLRAEDTAVYYCAGVRDEVAMGENPDLSYWGQGTLVTVSS
notes: From the library made by diversifying the CDR loops of DP47d; frameworks of DP47d, ranges as for HEL4; also called Clone 13
% refolding (protein A binding retained after heating) (protein A [6]): 35%

B6: DP47 F27D/F29V (other, name in Kabat numbering)
VH: EVQLLESGGGLVQPGGSLRLSCAASGDTVSSYAMSWVRQAPGKGLEWVSAISGSGGSTYYADSVKGRFTISRDNSKNTLYLQMNSLRAEDTAVYYCAKSYGAFDYWGQGTLVTVSS
Refoldability on phage (protein A binding retained after heating) (protein A [7]): 62%

B7: DP47 S53P/G54D (other, name in Kabat numbering)
VH: EVQLLESGGGLVQPGGSLRLSCAASGFTFSSYAMSWVRQAPGKGLEWVSAISGPDGSTYYADSVKGRFTISRDNSKNTLYLQMNSLRAEDTAVYYCAKSYGAFDYWGQGTLVTVSS
Refoldability on phage (protein A binding retained after heating) (protein A [7]): 19%

B8: DP47 F27D/F29V/Y32D/S35G (other, name in Kabat numbering)
VH: EVQLLESGGGLVQPGGSLRLSCAASGDTVSSDAMGWVRQAPGKGLEWVSAISGSGGSTYYADSVKGRFTISRDNSKNTLYLQMNSLRAEDTAVYYCAKSYGAFDYWGQGTLVTVSS
notes: kept apart as printed
Refoldability on phage (protein A binding retained after heating) (protein A [7]): 80%

B9: DP47 S30N/A33D (other, name in Kabat numbering)
VH: EVQLLESGGGLVQPGGSLRLSCAASGFTFNSYDMSWVRQAPGKGLEWVSAISGSGGSTYYADSVKGRFTISRDNSKNTLYLQMNSLRAEDTAVYYCAKSYGAFDYWGQGTLVTVSS
notes: also called A33D/S30N
Refoldability on phage (protein A binding retained after heating) (protein A [7]): 81%
% refolding (protein A binding retained after heating) (protein A [6]): 2.11%

B10: DP47 quadruple mutant F27D/F29V/S35G/Y32E (other, name in Kabat numbering)
VH: EVQLLESGGGLVQPGGSLRLSCAASGDTVSSEAMGWVRQAPGKGLEWVSAISGSGGSTYYADSVKGRFTISRDNSKNTLYLQMNSLRAEDTAVYYCAKSYGAFDYWGQGTLVTVSS
% refolding (protein A binding retained after heating) (protein A [6]): 29.5%

B11: anti-HSA VH clone #7 (other)
VH: EVQLLESGGGLVQPGGSLRLSCAASGFTFWKYNMAWVRQAPGKGLEWVSTILGEGNNTYYADSVKGRFTISRDNSKNTLYLQMNSLRAEDTAVYYCAKTMDYKFDYWGQGTLVTVSS
notes: As clone #1
% HSA binding signal retained after heating (human serum albumin [3]): < 10%

B12: pA-C76 (other)
VH: EVQLLESGGGLVQPGGSLRLSCAASGDNVISDDMSWVRQAPGKGLEWVSTINGPSGSTYYADSVKGRFTISRDNSKNTLYLQMNSLRAEDTAVYYCAANGEDTDMLDMWGDRSAALKSWGQGTLVTVSS
notes: as for B4
% refolding (protein A binding retained after heating) (protein A [6]): 35%

B13: anti-HSA VH clone #6 (other)
VH: EVQLLESGGGLVQPGGSLRLSCAASGFTFHRYSMSWVRQAPGKGLEWVSTILPGGDVTYYADSVKGRFTISRDNSKNTLYLQMNSLRAEDTAVYYCAKQTPDYMFDYWGQGTLVTVSS
notes: As clone #1
% HSA binding signal retained after heating (human serum albumin [3]): < 10%
Refoldability (HSA binding retained after heating) (human serum albumin [4]): < 0.2%
phage number, +Heat (human serum albumin [5]): 9.75e+09 phage
phage number, -Heat (human serum albumin [5]): 2.1e+07 phage

B14: anti-HSA VH clone #2 (other)
VH: EVQLLESGGGLVQPGGSLRLSCAASGFTFSDYRMSWVRQAPGKGLEWVSTIISNGKFTYYADSVKGRFTISRDNSKNTLYLQMNSLRAEDTAVYYCAKQDWMYMFDYWGQGTLVTVSS
notes: As clone #1
% HSA binding signal retained after heating (human serum albumin [3]): < 10%
phage number, +Heat (human serum albumin [5]): 1e+10 phage
phage number, -Heat (human serum albumin [5]): 1.3e+09 phage

B15: anti-HSA VH clone #4 (other)
VH: EVQLLESGGGLVQPGGSLRLSCAASGFTFYDYNMSWVRQAPGKGLEWVSTITHTGGVTYYADSVKGRFTISRDNSKNTLYLQMNSLRAEDTAVYYCAKQNPSYQFDYWGQGTLVTVSS
notes: As clone #1
% HSA binding signal retained after heating (human serum albumin [3]): < 10%
Refoldability (HSA binding retained after heating) (human serum albumin [4]): 9.1%
phage number, +Heat (human serum albumin [5]): 1e+10 phage
phage number, -Heat (human serum albumin [5]): 5.7e+08 phage

B16: anti-HSA VH clone #10 (other)
VH: EVQLLESGGGLVQPGGSLRLSCAASGFTFDEYNMSWVRQAPGKGLEWVSTILPHGDRTYYADSVKGRFTISRDNSKNTLYLQMNSLRAEDTAVYYCAKQDPLYRFDYWGQGTLVTVSS
notes: As clone #1; the one clone recovered with the heat step
Refoldability (HSA binding retained after heating) (human serum albumin [4]): ~100%
phage number, +Heat (human serum albumin [5]): 1e+10 phage
phage number, -Heat (human serum albumin [5]): 1e+10 phage

B17: pA-C36 (other)
VH: EVQLLESGGGLVQPGGSLRLSCAASGVNVSHDSMTWVRQAPGKGLEWVSAIRGPNGSTYYADSVKGRFTISRDNSKNTLYLQMNSLRAEDTAVYYCASGARHADTERPPSQQTMPFWGQGTLVTVSS
notes: Frameworks of DP47d, ranges as for HEL4; also called pA-36
Refoldability on phage (protein A binding retained after heating) (protein A [7]): 80%
% refolding (protein A binding retained after heating) (protein A [6]): 25%

B18: pA-C47 (other)
VH: EVQLLESGGGLVQPGGSLRLSCAASGYNITDENMAWVRQAPGKGLEWVSTIAADNGSTYYADSVKGRFTISRDNSKNTLYLQMNSLRAEDTAVYYCATTEAAGVEEDNVRSWGQGTLVTVSS
notes: as for B4
% refolding (protein A binding retained after heating) (protein A [6]): 25%

B19: TAR2-10-27 (other)
VH: EVQLLESGGGLVQPGGSLRLSCAASGFTFEWYWMGWVRQAPGKGLEWVSAISGSGGSTYYADSVKGRFTISRDNSKNTLYLQMNSLRAEDAAVYYCAKVKLGGGPNFGYRGQGTLVTVSS
notes: Human VH3 single domain (dAb) against human TNFR1, tested as soluble protein purified on protein A beads
IC50 (read off the curve), inhibition of TNF-induced IL-8 secretion of HeLa cells [8]: ~10 nM
IC50 (read off the curve) [9]: ~5 nM

B20: TAR2-10-27-F27D (other)
VH: EVQLLESGGGLVQPGGSLRLSCAASGDTFEWYWMGWVRQAPGKGLEWVSAISGSGGSTYYADSVKGRFTISRDNSKNTLYLQMNSLRAEDAAVYYCAKVKLGGGPNFGYRGQGTLVTVSS
notes: Soluble dAb
IC50 (read off the curve) [9]: ~6 nM

B21: TAR2-10-27-Y32D (other)
VH: EVQLLESGGGLVQPGGSLRLSCAASGFTFEWDWMGWVRQAPGKGLEWVSAISGSGGSTYYADSVKGRFTISRDNSKNTLYLQMNSLRAEDAAVYYCAKVKLGGGPNFGYRGQGTLVTVSS
IC50 (read off the curve), inhibition of TNF-induced IL-8 secretion of HeLa cells [8]: ~5 nM
